Results published in publication PMC12051234, “NrdR in Streptococcus and Listeria spp.: DNA Helix Phase Dependence of the Bacterial Ribonucleotide Reductase Repressor” (Molecular Microbiology, 2024).
“And” between values parts separate entries of the source, which are not always exact repeats. Equal values may be shown once.

B1: Streptococcus pneumoniae NrdR (natural protein, Streptococcus pneumoniae TIGR4, UniProt P67318 1-157, looked up)
chain: MRCPKCGATKSSVIDSRQAEEGNTIRRRRECDECQHRFTTYERVEERTLVVVKKDGTREQFSRDKIFNGIIRSAQKRPVSSDEINMVVNRIEQKLRGRNENEIQSEDIGSLVMEELAELDEITYVRFASVYRSFKDVSELESLLQQITQSSKKKKER
notes: NrdR, transcriptional repressor of ribonucleotide reductase genes, S. pneumoniae TIGR4; the nrdR gene (SP_1713, AAK75791) cloned in pET30a(+) between NdeI and XhoI; molecular mass including the hexa-histidine tag 19.4 kDa; Oligomeric state depends on the nucleotides added (none, ATP, dATP + ATP); also called SpnNrdR; source: E. coli BL21(DE3), purified (HisTrap FF Ni-Sepharose, desalting); not …
B2: Listeria monocytogenes NrdR (natural protein, UniProt B8DHI6 1-154, looked up)
chain: MRCPTCQYNGTRVVDSRPADDGNSIRRRRECEKCGFRFTTFEKVEESPLIVVKKDGAREEFAREKVRRGLIRACEKRPVSAEQIEEIVNEVERELRNIGDSEIASDLIGEKVMNKLANLDEVAYVRFASVYRQFKDISVFVEELKDLMEKNKDR
notes: NrdR, transcriptional repressor of ribonucleotide reductase genes, L. monocytogenes serotype 1/2a str; S10403S; molecular mass including the hexa-histidine tag 19 kDa; Oligomeric state depends on the nucleotides added; also called LmoNrdR; L. monocytogenes NrdR; source: E. coli BL21(DE3), purified (HisTrap FF Ni-Sepharose, desalting); not shown: His6, C-terminal, kept

Columns and labels:
[1] = target: the molecule itself; assay: SEC; SpnNrdR 50 uM incubated with 0.5 mM ATP, 0.5 mM dATP and 2.5 mM MgCl; ATP and dATP 0.1 mM each in the buffer; Superdex S200 Increase, 4 C; 25 mM HEPES pH 7.2, 2.5 mM MgCl2, 15% glycerol, 250 mM NaCl, 0.1 mM TCEP
[2] = target: the molecule itself; assay: SEC; LmoNrdR 50 uM, no nucleotides in protein or buffer (apo); Superdex S200 Increase, 4 C; 25 mM Bis-Tris Propane pH 6.5, 5% glycerol, 5 mM MgCl2, 100 mM KCl, 1 mM DTT; size from a calibration curve of globular standards
[3] = target: the molecule itself; assay: SEC; LmoNrdR 50 uM incubated with dATP + ATP and 5 mM MgCl; 0.1 mM of each nucleotide in the buffer; Superdex S200 Increase, 4 C; 25 mM Bis-Tris Propane pH 6.5, 5% glycerol, 5 mM MgCl2, 100 mM KCl, 1 mM DTT
[4] = target: the molecule itself; assay: SEC; LmoNrdR 50 uM incubated with 1 mM ATP and 5 mM MgCl; 0.2 mM ATP in the buffer; Superdex S200 Increase, 4 C; 25 mM Bis-Tris Propane pH 6.5, 5% glycerol, 5 mM MgCl2, 100 mM KCl, 1 mM DTT

| Protein | stoichiometry N [1] | stoichiometry N [2] | stoichiometry N [3] | stoichiometry N [4] |
| --- | --- | --- | --- | --- |
| B1 | 4 |  |  |  |
| B2 |  | 2 and 4 | 4 | 8 |
